Assay results: patent publication US20100143245A1

Target: 4Ig-B7H3, the 4Ig domain isoform of the human B7-homolog 3 (human) (UniProt Q5ZPR3)
Assay: Immunoaffinity capture from LAN-1 lysate or membrane fraction on 8H9-protein G Sepharose, followed by Western blot

Sequence of UniProt Q5ZPR3 (Q5ZPR3 29-534 limits assumed, form in doubt): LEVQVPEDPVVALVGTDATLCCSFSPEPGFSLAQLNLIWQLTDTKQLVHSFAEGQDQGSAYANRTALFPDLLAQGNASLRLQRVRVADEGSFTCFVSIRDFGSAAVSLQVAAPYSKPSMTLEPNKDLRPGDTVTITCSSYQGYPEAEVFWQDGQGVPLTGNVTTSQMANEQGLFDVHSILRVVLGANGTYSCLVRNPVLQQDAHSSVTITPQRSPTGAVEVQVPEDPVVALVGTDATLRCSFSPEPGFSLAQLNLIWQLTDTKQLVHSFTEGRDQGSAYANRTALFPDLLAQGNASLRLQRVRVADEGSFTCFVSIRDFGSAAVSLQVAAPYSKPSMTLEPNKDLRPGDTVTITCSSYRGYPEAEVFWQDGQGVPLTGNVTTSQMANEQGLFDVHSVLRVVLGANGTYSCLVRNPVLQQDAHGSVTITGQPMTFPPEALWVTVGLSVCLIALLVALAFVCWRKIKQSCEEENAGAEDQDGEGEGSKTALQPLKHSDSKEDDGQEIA

monoclonal antibody 8H9
portion of 8H9 antigen bound to the Sepharose: > 50%
